In the experiment the target is T1, PB2 subunit of the influenza C/Johannesburg/1/1966 virus polymerase (FluPolC) (influenza C/Johannesburg/1/1966 virus, UniProt Q9IMP3).
T1 sequence: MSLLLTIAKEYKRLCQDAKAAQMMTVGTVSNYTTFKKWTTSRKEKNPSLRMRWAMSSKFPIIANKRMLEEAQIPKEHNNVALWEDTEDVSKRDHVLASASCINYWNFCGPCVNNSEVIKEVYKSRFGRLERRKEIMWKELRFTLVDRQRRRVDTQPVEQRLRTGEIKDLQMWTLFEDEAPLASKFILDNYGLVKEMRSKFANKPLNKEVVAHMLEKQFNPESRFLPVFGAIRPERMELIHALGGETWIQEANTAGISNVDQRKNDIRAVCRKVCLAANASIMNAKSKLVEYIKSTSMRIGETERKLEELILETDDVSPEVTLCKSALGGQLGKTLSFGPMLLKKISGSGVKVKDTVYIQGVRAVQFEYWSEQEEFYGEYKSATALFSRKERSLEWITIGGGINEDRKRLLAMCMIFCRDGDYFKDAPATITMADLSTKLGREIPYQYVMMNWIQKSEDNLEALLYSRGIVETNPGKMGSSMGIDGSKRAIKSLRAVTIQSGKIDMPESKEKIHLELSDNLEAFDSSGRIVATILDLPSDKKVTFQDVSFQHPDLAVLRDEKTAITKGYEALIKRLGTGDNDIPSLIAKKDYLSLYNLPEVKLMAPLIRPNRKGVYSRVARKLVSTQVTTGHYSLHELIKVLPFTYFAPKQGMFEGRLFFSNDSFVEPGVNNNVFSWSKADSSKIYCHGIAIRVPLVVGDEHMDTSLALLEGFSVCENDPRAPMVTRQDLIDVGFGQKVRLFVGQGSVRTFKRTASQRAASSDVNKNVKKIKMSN
Briefly: crystal structure.

B1: PB1 subunit of the influenza C/Johannesburg/1/1966 virus polymerase (FluPolC) (natural protein)
chain: MEINPYLMFLNNDVTSLISTTYPYTGPPPMSHGSSTKYTLETIKRTYDYSRTSVEKTSKVFNIPRRKFCNCLEDKDELVKPTGNVDISSLLGLAEMMEKRMGEGFFKHCVMEAETEILKMHFSRLTEGRQTYDWTSERNMPAATALQLTVDAIKETEGPFKGTTMLEYCNKMIEMLDWKEIKFKKVKTVVRREKDKRSGKEIKTKVPVMGIDSIKHDEFLIRALTINTMAKDGERGKLQRRAIATPGMIVRPFSKIVETVAQKICEKLKESGLPVGGNEKKAKLKTTVTSLNARMNSDQFAVNITGDNSKWNECQQPEAYLALLAYITKDSSDLMKDLCSVAPVLFCNKFVKLGQGIRLSNKRKTKEVIIKAEKMGKYKNLMREEYKNLFEPLEKYIQKDVCFLPGGMLMGMFNMLSTVLGVSTLCYMDEELKAKGCFWTGLQSSDDFVLFAVASNWSNIHWTIRRFNAVCKLIGINMSLEKSYGSLPELFEFTSMFFDGEFVSNLAMELPAFTTAGVNEGVDFTAAMSIIKTNMINNSLSPSTALMALRICLQEFRATYRVHPWDSRVKGGRMKIINEFIKTIENKDGLLIADGGKLMNNISTLHIPEEVLKFEKMDEQYRNRVFNPKNPFTNFDKTIDIFRAHGPIRVEENEAVVSTHSFRTRANRTLLNTDMRAMMAEEKRYQMVCDMFKSVFESADINPPIGAMSIGEAIEEKLLERAKMKRDIGAIEDSEYEEIKDIIRDAKKARLESR
For B1, the binding result is “binds”.

B2: P3 subunit of the influenza C/Johannesburg/1/1966 virus polymerase (FluPolC) (natural protein)
chain: MSKTFAEIAEAFLEPEAVRIAKEAVEEYGDHERKIIQIGIHFQVCCMFCDEYLSTNGSDRFVLIEGRKRGTAVSLQNELCKSYDLEPLPFLCDIFDREEKQFVEIGITRKADDSYFQSKFGKLGNSCKIFVFSYDGRLDKNCEGPMEEQKLRIFSFLATAADFLRKENMFNEIFLPDNEETIIEMKKGKTFLELRDESVPLPFQTYEQMKDYCEKFKGNPRELASKVSQMQSNIKLPIKHYEQNKFRQIRLPKGPMAPYTHKFLMEEAWMFTKISDPERSRAGEILIDFFKKGNLSAIRPKDKPLQGKYPIHYKNLWNQIKAAIADRTMVINENDHSEFLGGIGRASKKIPEISLTQDVITTEGLKQSENKLPEPRSFPRWFNAEWMWAIKDSDLTGWVPMAEYPPADNELEDYAEHLNKTMEGVLQGTNCAREMGKCILTVGALMTECRLFPGKIKVVPIYARSKERKSMQEGLPVPSEMDCLFGICVKSKSHLNKDDGMYTIITFEFSIREPNLEKHQKYTVFEAGHTTVRMKKGESVIGREVPLYLYCRTTALSKIKNDWLSKARRCFITTMDTVETICLRESAKAEENLVEKTLNEKQMWIGKKNGELIAQPLREALRVQLVQQFYFCIYNDSQLEGFCNEQKKILMALEGDKKNKSSFGFNPEGLLEKIEECLINNPMCLFMAQRLNELVIEASKRGAKFFKTD
Regarding B2, the binding result is “binds”.
